{
  "source": "paper PMC6134094",
  "about": "(mBio, 2018)",
  "target": "T1, cleaved Ebola virus (EBOV) glycoprotein GPCL (Ebola virus (Zaire ebolavirus), UniProt Q05320)",
  "T1 construct": "copies: 3 + 3",
  "test": "crystal structure",
  "conditions": "both partners purified",
  "data": [
    {"binder": "ADI-15878 fragment antigen binding (Fab) (Fab, V domains shown, also called ADI-15878 Fab) VH: QVQLVQSGVTLVQPGGSLRVSCAASGFTFSSYAMSWVRQAPGKGLEWVSAISGLGGSTYYADSVKGRFTISRDNSKNTLYLQMNSLRAEDTAVYYCAKDHRVWAAGYHFDYWGQGALVTVSS VL: DIVLTQSPSTLSASVGDRVTITCRASQSISSWLAWYQQKPGEAPKLLISDASSLESGVPSRFSGSGSGTEFTLTISSLQPDDFATYYCQQYYSSPTFGGGTKVEIK", "values": [
      {"measurement": "binding result", "result": "binds"}
    ]}
  ]
}
